According to the supplement of paper PMC12636428:

Test system: Saccharomyces cerevisiae
Assay: transcriptional activation domain activity (GFP:mCherry ratio, weighted mean of sorted bins, harmonized to initial dataset scale) (arbitrary fluorescence ratio units); higher = stronger transcriptional activation
Conditions: beta-estradiol 1 µM; induction time 4 h
Outline: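 Barcoded tiles were sequenced after cells were sorted into 8 bins by GFP:mCherry ratio. Before sorting, cultures had been diluted 1:5 into SC with 1 uM beta-estradiol and held for 4 hours at 30 °C. The tiles were fused to an estradiol-inducible synthetic transcription factor and integrated at URA3 in yeast diploids carrying a GFP reporter. Activation activity is the read-weighted mean of bin median fluorescence, averaged over barcodes and linearly mapped onto the initial dataset scale, and tiles under 50 reads were left out.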

Sequence | transcriptional activation domain activity
PFLFPSLFYSQYHTIPFSFSCHFIPLSFSFPSFYSGSPIPFPFLFSSSYLFLF | 58300
QEKEGGAKEAQPDADADAEAEGKAARQKARKAVVSAASDDEGDDEEEEEEEEG | 10000
MILLVSFFFLLLIFFFSIREFRSECIVNDFWSFVYLSAYIVLDVCRIFFFLFW | 25600
VYIGACWGHWAQLNVFLIPGLVVWFIDRGIRFARTALLHYNFLPSGHMGFRAA | 77700
LGSIWKPLRNDLLFGTCFFLTRILYHNIMIFTFYYHLDFMFPVYTLLFILPLH | 61100
FIVHTAELHLFRKQYVGQLYRSQKLLGLLARRPHIARLVTRFGMHAMSAPLFY | 57100
KDEEEREGEKRKEGKEESDTAVVKHRRRYRSRSKDRKRDGSRERRHRERSREG | 30600
MVKSFALGGLILLFSFLLLLLLLSLLLLFISSLLSLSLIPFFLFDSLSIARFS | 64400
TETELYIPEFKLDPVNGYWFPHFVKYIIVALMMGLYILIVFWTLMIFKVVYKL | 43100
FISVYVPNFFVAFCLEMSQFFYLYQFMVMWLYYYWNYYVIGVIDTAIILVSAI | 47100
ILLSLFANHFPWDFRDALCLEFWVVAFRNLEMLEYFDGDLLLSEHGGTCTVSK | 34800
FICLLLSTTLRRLRWCLIRYIRNNYMEVCVCLVTIGVVAFSRLSWTLWVGAYV | 50000
GSEEDAARAASTSRKRRRASAPRTGDGSDDERESSRAEASAGAGAGAEAKPRR | 18600
VAVARTKARKAVVGIEKVEIAAEVEATPEIVTAARTRERKAVVGIESAETVAE | 45800
PSRPATPPRSSSAPTGISPNPRTRTCSSASCCASSRSPPSTTSPPTPPAAAAP | 51100
QGDTDADGNGHGTHCSGTIAGKKYGVAKKAHVYAVKVLRSNGSGTMADVIGGV | 59600
SSSSSSREDGEASDASSSSRDSRRRRRRSTSRDKRPAAESKAATEPAAAKPRN | 30000
GVVWCGVIFGFVAFHILCLFDVFFSFFFFFFEFWFWFFGFVYLNGLGWVGVGW | 40100
MEWVRLLSKEVLLFYSIFFFSFVSFTVLTLFPLHESSILSRLLIFIYPLRHLV | 44700
MGMAYGVCCMYFLEPWWVGAISLVRFLGVGVFTLCMYFPSIMIFYFLLFFIIF | 51000
MACLVSGIGWCLLYFTCMYLLLIYYILSLFYPPLASCNSFSFFFLSFFFFAGR | 59100

Sequence | transcriptional activation domain activity
AEDKARKEAEDKAREEAEEKAREEQEEAARARADAEAKKAALEAKREAEAKAK | 16300
HSDLLNDMDSASQRASHNASGFPNFLDTSCSSSFDDHFIFTNNLPFLNNNSIN | 60800
SGTSLFLFYFYFIFILILISIITFFFLFLIFFFIILFLLLLFFSYPSGIRPGW | 26900
RYLNITGRCRCSLQDLSFSVLLIRSLGAPLVELHVCCLYWWFGAYRLRFIFFI | 55000
GRHFLAGVLEGLPYVMPLFAPTVNSYKRLVENFWAPVTVSWGLEHRIASIRLI | 32600
WYTTISSTGLLSLLLYSLPFQPARLWVLGGILYIFSLVSFCALLLVHLVRFLV | 47500
VEQYLHLLPPHSLQEIRWRWRMTKVSRPIPEKMKLVRLNLKAVKHIHLFMKSA | 31500
KAVFKALPILVVASVGCASTNLLIRTVIIWRKEHLVISVLLLLYVGHWTILFV | 32100
MEAREGRAGNAFACERCRKHKVRCVPSGTAGICQRCQKARVECIEHVARRRPA | 29100
ERSLGGGSLYTGKAVHTDPEMSEVHATEYTRGRLRKFLCLAFGEVASVLRLDK | 16600
ADEEDLSSKPRCQRCRKSKKGCDRQRPCGRCKDAGIGIEGCVSEDEGNGRKGR | < 6570
MAPFSPFVYFFLFLVHNSWLFCFLLVCFPFFSILVFLSFCPFLSPFTSRFSFL | 56600
GWFGAVFGVLYFFLFIFGITSVYIGFSFLLYSICLSHGTVWHPLCQFHFFYFI | 28100
DHFDAPEPWSMFWYDPALDGTWWDQLPLDHFFPSELGAWASARSSWTDLTGSY | 155000
MAVNDGFLFVFSCLFFLIFVTLLLTFPFLFFGSSHFHMGNPPVFPLLILISCY | 47200
RQEREGYEDYEDGSRRKHKNRHSRSPSSDGEDRISRKRKSRRAKDVEDSHANS | 25500
AVLSLLCSLLNTTLKYNPASWRVPYDHVVFKDPKQILVTYCLQLLLVLILYPI | 37500
SKHATEAEKKKEEEKKSKSKEAPAKKEKKEKVKEEKPKEKVVAKIPEPAPSEP | 20200
LLLHYKHEEFVGHEETDFVVMGFTKLLLCCISSLKSFKKPLNAGPLIERIFRK | 84700
NQAQPSTSGGFGQPSAFGSATPSSSAFGGGAASTPTQPSAFGASTTPAAAPTA | 8250
EADGEVKTKSKKSKKQKGDAADSAEADDAKSAVPEGTDATKKKKKRKTQEPSD | 30600

Sequence | transcriptional activation domain activity
MHTLLTILQTLHILVIFNTIVYPVCLFEICCFAWYFIPFAFRFLCLCFFFLFL | 55000
MYSFRLISLMLLSAIALVAANPLMIRIWPLRGGSLTFNLLLLFRWLDFQFVSH | 59900
IDFHQHESLIGTEDAFFWFLVPLIGVVCIGVCTVLHYVVLIFTHSFRLLYSLV | 26700
PAPTGDSPKKEKKRKRESAVAEDAPAAAEAEEADEPEKKKKKKKKHAEAEGAN | 23700
TSAAPAFGTSGFSAAKPATPAQASAFGSPAALGAKASPWGAQNSSSSGTTAGA | 31100
MHGTGVFFGCLGIHIFFFLSSLLFHVDIFVIRDIFFNFLLFFFIFFLRILYSM | 42700
MYRLQCGVIYSLYVMCFMLLQMLLCVCVVSESFFFFLFLALIVWSPVYIILRV | 41900
SGRTATSAKSHNIISGYREEVEQANLNLSLIDSQVVLLRAWKLLAMELCPFAF | 55900
EQDAFFPWLWIDPQFPEDPVLGSWDTFLGDFNCGMPLDDLDFALDMLQYSVGA | 161000
HVGRLMPIIAYFRAVIKCIEMLGVKRPVLVCPLSSFHGGFYVGGLMFQCVDRK | 62600
YTSLIILVTWLSIVFSKFVLHRRTFGLVFVHLHFFFLFALFSFFFSYCVCIRI | 60600
SGLPIQYLNGSVTYQDGWVWLPGDSTDINATVQDLEDMWDSMVLNFWPLMTLF | 66100
EAEDDEEDADAAGGKKPKAKKRKRESTVKESAEEKKGKRKRASEQLAKQRRGK | 22600
RLRKDVGPFSPDDIQKPSLTWIHVRRNNLLLMMAPVRSYTWKAAQTLGEIFGA | 28000
IPIKYNTAIKRHQHSTELPSSVKCGFCNDNTTCVCKELETDHRKSDDGVATEQ | 39200
MFWIFYELFLDGQDIHRFSLLLVFFLFFPFASYTYSLLLLILYSVSPYGFLTS | 38000
HPLSWAKFALVMGMLSSLGVLVISTYSVSLSILQFARPLQYIPRFLWTIATLV | 34400
GGRKRRKEREQQRERPDEEQSRPGSRDDEEGEKEGRGKGTKARKGAGGAAGKG | 27600
NLPSLIGIQLLSSMGEYVMLWLIFVGTVIYYAGWVTLVIDGFCRFLNIRCLVI | 56900
APPEGGDKSESKEPPKKEESAPTEAKPAEPKEENKPEAKQASNKETKPESSKP | 23300
MIYLASFLLLTVDSSIWSVPITIFIPYTIYLFPPHTYICVLFARILIFHLLSF | 61200

Sequence | transcriptional activation domain activity
LNLRRPLAFGGMATLLTYLIVPIYFSGVCYRLRLTLPPFLFLILRVSFELFVL | 67800
SKPSARKASSRSVASKEQAAVAAKKVASVEEQKKKRGRPRKLPLSDATNEVAS | 42100
FLFFFFLLLFLLYSSLPLPPFLYPSLPLCRFSLFYYYLLLWFHFPCFSPFFLF | 57900
FIRSQLGSVMPTIALSLMKDVLFRLEQLFLNRECHEWPVALAVLIIVLMTIES | 52800
AFLLPFANHHRFVSYCLYVFGFIFFVFSLEKGYYKQQFTQFCVTHMCLLLVVF | 39800
REEAERKAREEEAERKAARGRGEESEGRARKAGARRARGTPRGGKAGTRRGGE | 43000
NLSPLVLPLWVQLNIYFGIVFLWILAPLVFYYNVWNAQSFPFLSNSIFQLLPN | 64600
MLLLPLSFPFLSFPFLSFPFLSFPFLSSPFLSLVFSVLVLFFIFLLLLLLLLL | 34900
VWVASKVEEDEASDYAAPEKQAKPKRQRGRPKKGGEDKSDVTSTAAAQESAAK | 24500
KAAAVVASDSDEPVEKPKPRRRNSTSSAKSGKSTKSNRSSRDKTAAGVAAGAG | 20700
HQVYTDWLYLWCLTYFARAHDQVLIILKKSLKHIPIVGWGMQFFRFLFLARSW | 31700
EILHLMVDRDLFLLLAIDGIMCLATSFGFLLQKAIVHDCLTWNGSGWIIQSLW | 68500
EEGERKGEGGKEKWERDAVGNGGRGRQGGEQEEEREEGAGGRGKGGGGRSRGK | 45900
SSSEEEVEVEVDKKTGVKRKRVKKQKVKKDVHNLVWSVVSQKKVFTDCWLGVL | 91900
MQMKMSESMSILILMLIMLELGWDVVDPCFFFTPFTPFPILPSFLPSFFFLFL | 54500
LLYLGCRWCTLIAIIFHFLGFDGGHRIDCQFMGYFSFTCASALIVLRIVAFWA | 66900
TEEDAINQSKESNMISINEMLQKQMDFELLGENHLKETQDYLALYKKAYGIEF | 113000
GLLCWIAIRKLGIIGLYVYMDDFFGWDFLDNLIFYRGMRRPRRQVLLLILWEF | 50700
FMHLSRPEKLLVLKVFADLVDYARKSIDSCLSSPTVNWSFNNLLWNYCSMLLQ | 67000
MFYYYFSPHFYCFMLPLYIFLFLISLFFIYPSKFYFLLIVMGVGFFSLHLCLP | 51500
